# Experimental data reported in US20130053541A1, “METHODS FOR DISCOVERING MOLECULES THAT BIND TO PROTEINS” (LYNNTECH, INC., priority 2011, published 2013).
# Molecular target: T1, native human ESRRG protein (Homo sapiens, UniProt P62508)
# T1 sequence (P62508 1-458): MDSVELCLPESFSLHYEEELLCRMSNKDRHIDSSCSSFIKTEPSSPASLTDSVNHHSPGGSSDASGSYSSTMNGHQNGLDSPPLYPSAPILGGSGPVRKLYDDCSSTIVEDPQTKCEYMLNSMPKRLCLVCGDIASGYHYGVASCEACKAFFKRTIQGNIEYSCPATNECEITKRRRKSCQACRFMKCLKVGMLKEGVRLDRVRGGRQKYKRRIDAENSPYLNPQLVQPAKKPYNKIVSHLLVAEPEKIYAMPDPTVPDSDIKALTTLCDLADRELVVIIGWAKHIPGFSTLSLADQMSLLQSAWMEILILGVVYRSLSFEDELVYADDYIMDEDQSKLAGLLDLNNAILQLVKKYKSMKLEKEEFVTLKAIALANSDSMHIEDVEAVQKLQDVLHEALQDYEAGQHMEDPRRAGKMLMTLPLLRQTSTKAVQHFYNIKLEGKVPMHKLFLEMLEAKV
# Assay: peptide microarray screening for ESRRG binding (Iteration 1 and 2)
# Settings: Iteration 1 primary screen
# From the text: The BLOSUM62 matrix was divided into Tiers based, with Tier 1 comprising “most conserved” (lowest penalty) and Tier 3 comprising “least conserved” (highest penalty) mutations observed in nature. Sequences for microarray production for the primary stage (Iteration 1) of screening for protein binding were created by permuting AA positions 4 and/or 5 only (i.e., core of sequence) of parent 8-mer peptides using Tier 1 and Tier 3 substitutions. This allows the systematic variation of the sequence in order to identify the most important motif within the larger candidate ligand sequence that is needed for binding the target protein. All peptides on the array were grown from the C→N terminal, with the exposed N-terminal amino acid masked by an acetyl group to prevent folding of the sequence and enable full presentation of the peptide to its target protein.
# Screening was carried out typically by hybridization of the protein (1 μg/mL) against the array for 1 h at 4° C.; detection of bound protein was carried out using a fluorescently labeled anti-ESRRG mAb. (Direct labeling of ESRRG and alternative detection strategies are equally valid).
# Highest binders (based on relative fluorescence signal) were selected and iteratively sequence expanded and arrayed (Iteration 2); and ESRRG binding sequences were selected as above. For iterative arrays, the core positions (AA 4 and 5) were kept unchanged while the outer amino acids (2, 3, 6, and/or 7) were permuted using Tier 3 substitutions.
# Daughter candidate ligands and their new Tier 3 and/or Tier 1 based combinations were synthesized in situ on an addressable peptide microarray and screened against native human ESRRG protein in order to determine sequences that bind to this protein. Bound protein was detected by a fluorescently labeled anti-ESRRG mAb. Results are obtained in fluorescence intensity units which were used to rank the peptide ligands. Excess (100×) competing biological matrices (human serum, HSA/BSA or bacterial protein extract) were used as backgrounds to select for specific ligands to the protein. Other competing proteins can be added to background for specificity selection and directed evolution of ligands.
# Iterative sequence expansion and arraying of 10 highest binding ligands to ESRRG from Iteration 1 was carried out and the new peptide sequences were synthesized on an array and screened against the protein, as described above. In this step, the central 2 amino acids (core) in peptide sequences were maintained unchanged while outlying amino acids (2, 3, 6, and 7) were permuted (using Tier 1 and Tier 3 substitutions) in a ‘cipher’ or ‘combination’ lock approach. Further affinity maturation of sequence was observed, with multifold enhancement in binding signal of Iteration 2 sequences (i.e., Granddaughters) compared to their respective parents from Iteration 1 (i.e., Daughters) on the same array.
row,Substance,log2 (Sample B/Sample A)
1,Ac-IKQNHNNS-NH2 (C-terminus assumed),9.63
2,Ac-IKQDHNNS-NH2 (C-terminus assumed),9.45

# Continued, values first:
row,log2 (Sample B/Sample A),Substance
1,5.40,Ac-LLHSSKSQ-NH2 (C-terminus assumed)
2,10.84,Ac-NSLKKHLL-NH2 (C-terminus assumed)
3,5.37,Ac-AANMFLLL-NH2 (C-terminus assumed)

# Same assay, conditions: Iteration 1 primary screen; fluorescence intensity units
Substance,Sample A (Bkgd) Signal,Sample B (Probe) Signal
ANNVLLLH,65.96,"1,997.75"
Ac-IKQNHNNS-NH2 (C-terminus assumed),1.00,793.75
AANMSLLL,16.99,"1,217.01"
Ac-IKQDHNNS-NH2 (C-terminus assumed),1.00,701.08
ANNSQLLH,1.00,–

# Continued, values first:
Sample A (Bkgd) Signal,Sample B (Probe) Signal,Substance
19.42,819.16,Ac-LLHSSKSQ-NH2 (C-terminus assumed)
56.94,"1,672.30",ANNLKLLH
33.10,–,LHLRYSQT
46.43,"1,624.73",ANNFLLLH
14.95,–,LLHLQKSQ
47.85,"3,242.55",NSLRQHLL
25.76,"1,042.20",NSLSWHLL
5.04,"9,219.14",Ac-NSLKKHLL-NH2 (C-terminus assumed)
13.51,"1,093.06",ANNILLLH
20.67,"1,673.50",NSLRSHLL
11.78,–,AIRVHLMG
42.26,"1,752.81",Ac-AANMFLLL-NH2 (C-terminus assumed)
6.97,–,LHLKGSQT
18.88,–,AIRGHLMG

# Same assay, conditions: Iteration 2 iterative screen
row,log2 (Sample B/Sample A),Substance
1,3.05,Ac-LYLLKHHP-NH2 (C-terminus assumed)

# Same assay, conditions: Iteration 2 iterative screen; fluorescence intensity units
Substance,Sample A (Bkgd) Signal,Sample B (Probe) Signal
HNNFSLEP,107.88,–
TGKLKQDG,209.87,"2,464.29"
LILLQQLD,177.10,"1,251.12"
PDSYPRWG,288.88,"5,591.60"
MYKLKQDN,184.58,–
NNSYPRHR,731.12,"3,422.79"
FVNFSLGI,238.31,–
PWKLKQDP,197.52,"1,339.15"
Ac-LYLLKHHP-NH2 (C-terminus assumed),304.92,"2,527.00"
VLLHYGLY,347.96,"1,796.19"
NFNYLLPH,470.56,"13,817.90"
YFLLQQGP,202.29,–
RRSYPRGR,445.58,"1,661.87"
ALNFSLNW,152.44,–
LFKLKQND,366.58,"1,857.96"
YHNYLLHP,240.19,"1,309.00"
NLLLKHPD,216.15,"2,297.98"
AHNYLLEH,115.46,–

# More lines, now with the values ahead:
Sample A (Bkgd) Signal,Sample B (Probe) Signal,Substance
"1,523.23","6,982.96",PFKLKQGN
68.94,–,DRSYPRHT
143.58,–,HNSYPRNE
160.50,"4,797.29",DINFSLGI
158.25,–,FWNMYLNP
553.79,"3,049.48",GKSYPRHR
165.10,"1,296.65",HYKLKQHE
219.12,"2,423.10",LFLLQQDD
81.50,"7,243.75",HDNMYLNE
115.25,–,AFNMYLDE
805.42,"19,001.58",HRSYPRRG
121.27,–,EESYPRDK
